According to the nanobody polyreactivity screen of Harvey et al. (2022):

Test: yeast display, Sf9 membrane polyspecificity reagent, FACS + sequencing; frameworks hold sequencing errors
Outline: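 Polyreactivity labels are assigned by the sorting gate from which each nanobody was recovered. The gates were low and high (top ~1%), set on anti-HA fluorescence for expression and streptavidin fluorescence for reagent binding. Before sorting, galactose-induced (36–48 hours) yeast display cells were stained for 1 hour at 4 °C with 10% biotinylated, detergent-solubilized Sf9 membrane reagent.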

| Sequence | polyreactivity (PSR sort gate) |
| --- | --- |
| QVQLVDSGGGLVQAGGSHRLSCAASGSTFYGNLMGWYRQAPGRERELVAAISGGCSTNYADSVKGRFTISRDNEKNTVYLQLNSLKPEDTAVYYCAARGVIRVGNAARYVAGYYWGQGTQVTVSS | high polyreactivity |
| QVQLVDSGGGLVQAGGSLLLICAASGSTIPRNAMGWYRQAPGKERELVAAITSGGSTNYADSVKGRFTISRDNAKNTVYLQMNSLKPEDTAVYYCAADEQVNTQYVVWGDYWGHGTQVTVSS | low polyreactivity |
| QVQLVDSGGGLVQAGGSLLLSCAASGFTFTIYAMGWNRQAPGKERELVATISGRAGRTYYADSVKGRFTISRDNAKNTVYLQMNSLKPEDTAVYYCNAGQWRYPGLYYYWGQGTQVTVSS | high polyreactivity |
| QVQLVDSGGGLVQAGGSLLLSCAASGHTLYRNAMGWYRQAPGKERELVAAITSRGGSTFYADSVKGRFTISRDNAKNSVYLQMNCLQPEDTAVYYCNTARGTAPAHDYWGQGTQVTVSS | low polyreactivity |
| QVQLVDSGGGLVQAGGSLPLICADAGSTFNSYAMGRYRQAPGKKRELVAAIRWIGDSTYADSVKGRFTISRDNATNTVYLQMNSLKPVDTAVYYCAATDVSWGVDYWGQCTQVTVSS | low polyreactivity |
| QVQLVDSGGGLVQAGGSLRLICAASGLIFYKYAMGWYRQAPGKERELVASISTGGGSTYYADSVKGRFTISRDNAKNTVYLQMNSLQPEDTAVYYCAARWWRRFRGSHSLYDYWGQGTEVTVSS | high polyreactivity |
| QVQLVDSGGGLVQAGGSLRLRCAASGRTFTPYAMGWYRQAPGQERELVATISSGTSTNYADSVKGRFTISRDNAKNTVYLQMNSLKPEDTAVYDCAADGYTYKFDYWGQGTQVTVSS | low polyreactivity |
| QVQLVDSGGGLVQAGGSLRLRCADSGSIFRDNAMGWYRQAPGKERELVADINYRDGDTFYADSVKGRFTISRDNAKNTVYLLMNSLKPEDNAVYYCAAEWDYPWWRIVAVYGYEYWGQGTQVTVSS | low polyreactivity |
| QVQLVDSGGGLVQAGGSLRLSAASGSTLSGNTMGWYRQAPGKERELVAAINDSGGSTYYADSVKGRFTISRDNAKNTVYLQMNSLKPEDTAVYYCAAETGYAFDYWGQGTQVTVSS | low polyreactivity |
| QVQLVDSGGGLVQAGGSLRLSCAASGFIFGYYAMGWYRPAPGKERELVAAISQSTGSTYYADSVKGRFTISRDNAKNTVYLQMNSLKPEDTAVYYCNAEGPEFTTWGYVYWDWGYGYWGQGTQVTVSS | low polyreactivity |
| QVQLVDSGGGLVQAGGSLRLSCAASGFIFPYYAMGWYRQAPGKERELVAAITRGGRTYYADSVKGRFTISRDNAKNTVYLQMNSLKPEDTAVYYCAARAGLDGEMDYWGQGTQVTVSS | high polyreactivity |
| QVQLVDSGGGLVQAGGSLRLSCAASGFIFSAYTMGWYRQAPGKERELVAAISGSGVGTYYADSVKGRFTISRDNAKNTVYLQMNSLKPEDTAVYYCNAADYTAYYWEYYYWGQGTQVTVSS | low polyreactivity |
| QVQLVDSGGGLVQAGGSLRLSCAASGFKFGTYAMGWYRQAPGKERELVAGISRRSGSTIYADSVKGRFTISRDNAKNTVYLQMNSLKPEDTAVYYCNVDRPDATWSWWEYGYWGQGTQVTVSS | high polyreactivity |
| QVQLVDSGGGLVQAGGSLRLSCAASGFTFRYYAMGWYRKAPGNERELVAGISWSGSRTYYADSVKGRFTISRDNAKNTVYLQMNSLKPEDTAVYFCAKVNSYGPVPDRYDYWGQGTQVTVSS | high polyreactivity |
| QVQLVDSGGGLVQAGGSLRLSCAASGFTFYRYAMGWYRPAPGKERELVAGITGSGGNTYYADSVKGRFTISRDNAKNTVYLQMNSLKPEDTAVYYCAAEDYVGWYNFEYWGQGNQVTVSS | high polyreactivity |
| QVQLVDSGGGLVQAGGSLRLSCAASGGTFDWYTMGWYRQAPGKERELVADITSGGSTYYADSVKGRFTISRDNAKNTVYLQMNSLKPEDTAVCYCATTVYSTSGYPYDYWGQGTQVTVSS | high polyreactivity |
| QVQLVDSGGGLVQAGGSLRLSCAASGITFRYYAMGWYRQAPGKERELVAAITRGGRTNYADSVKGRFTISRDNAKNTVYLQKNSLKPEETAVYYCATGRDSNFGNSYYYWGQGTQVTVSS | high polyreactivity |
| QVQLVDSGGGLVQAGGSLRLSCAASGLTFSTYAKGWYRQAPGTERELVAVIRRTGSTYYADSVKGRFTISRDNAMNTVYLHMNGLKPEDNAVYYFATARRHVSGYDFWGQCTQVTVSS | high polyreactivity |
| QVQLVDSGGGLVQAGGSLRLSCAASGRIFGYNAMGWSRQAPGKERELVAAITSDARTNYADSVKGRFTISRDNAKNTVYLQMISLKPEDTAVYYCAARRYPPRMDYWGHGTQVTVSS | high polyreactivity |
| QVQLVDSGGGLVQAGGSLRLSCAASGRIFPYYAMGWYRQAPGKERELVAAISSGGSTKYADSVKGRFTISRDNAKNTVYLQMNSLKPEDTAVYYCAKDPFPWALFDYWGQGTLVTVSS | low polyreactivity |
| QVQLVDSGGGLVQAGGSLRLSCAASGRIFRWNAMGWYRQAPGKERELVAVISSGGSTNYADSVKGRFTISRDNAKNTVYLQMNSLKPEDTAVYYCAKGLIRYSHLDYWGQGTQVTVSS | low polyreactivity |
| QVQLVDSGGGLVQAGGSLRLSCAASGRIFYTNAMGWYIQEPGKERELVAAIDYSDSTTYYADSVKGRFTISRDNAKNTVYLQMNSLKPEDTAVYYCAAESYLYTVTFEYWGQGTQVTVSS | high polyreactivity |

| Sequence | polyreactivity (PSR sort gate) |
| --- | --- |
| QVQLVDSGGGLVQAGGSLRLSCAASGRILYANAMGWYRQAPGKERELVAAIRYSDDSTYYADSVKGRFTISRDNAKNTVYLHMNSLKPEDTAVYYCNADYLRWDIWYWHGYDYWGQGTQVTVSS | high polyreactivity |
| QVQLVDSGGGLVQAGGSLRLSCAASGRIVELYAMGGYRQAPGKEREMVAVITNGGSTYYADSVKGRFTISRDNAKNTVYLQMNSLKPEDTAFYFCNARRGYNRVGGSYGYWGQGTQVTVSS | low polyreactivity |
| QVQLVDSGGGLVQAGGSLRLSCAASGRNFSPYTMGWYRQAPGKVREMVAAIRSGDGRTYYADSVKGRFTISRDNAKNTVYLQMNSLKQEDTAVYYCAARRGKVYVSGNGYWGQGTQVTVSS | high polyreactivity |
| QVQLVDSGGGLVQAGGSLRLSCAASGRTFGRYTMGWYRQAPGKERELVAAITYSGGSTYYADSVKGRFTISRDNAKNTVYLQMNSLKPEDTAVYYCAAEWVYDWYRYGYWGQGTQVTVSS | low polyreactivity |
| QVQLVDSGGGLVQAGGSLRLSCAASGRTFGVNTMGWYRQAPGKERELVAAISWSGGRTYYADSVKGRFTISRDNAKNTVYLQMNSLKPEDTAVYYCAASWYSRASLYDYWGQGTQVTVSS | high polyreactivity |
| QVQLVDSGGGLVQAGGSLRLSCAASGRTFPFYAKGLSRQATGKERELVAVITWRGSNTFADSVKGRFTISRDNAKNTVFLQMNSLKPEDTAVYYCAADAWRSYGYRAYDYWGQGTQVTVSS | high polyreactivity |
| QVQLVDSGGGLVQAGGSLRLSCAASGRTFRGNVMGWYRQAPGKEREFVAAITKSDGSTYYADSVKGRFTISRDNAKNTVYLQKNSLKPEDTAVYYCAARTARTGWPWFRYDYWGQGTQVTVSS | low polyreactivity |
| QVQLVDSGGGLVQAGGSLRLSCAASGRTFSPYMGWYRQAPGKEREFVAAISKSGGRTYYADSVKGRFTISRDNAKNTVYVQMNSLKPEDTAVYYCAAGAWRGPYSGYYYWGQGTQVTVSS | low polyreactivity |
| QVQLVDSGGGLVQAGGSLRLSCAASGRTFYYNTMGWYRQAPGKERELVAAITYRGGRTYYADSVKGRFTISRDNAKNTVYLQMNSLKPEDTAVYYCAADWRGPGRTYKINKYDYWGQGTQVTVSS | high polyreactivity |
| QVQLVDSGGGLVQAGGSLRLSCAASGRTISKYAMGWNRQAPVKERELVAAITGSGGSTHYADSVKGRFTISRDNAKNTVYLQMNSLKPEDSAVYYCAAVPRYQYGYWGQGTQVTVSS | low polyreactivity |
| QVQLVDSGGGLVQAGGSLRLSCAASGRTSYYNTMGWYRQAPGKERELVAAITGRGDSTYYADSVKGRFTISRDNAKNTVYLQMNSLKPEDTAVYYCAADELHLLYRVSKFVDYNHWGQGTQVTVSS | low polyreactivity |
| QVQLVDSGGGLVQAGGSLRLSCAASGSIFPSYAIGWYRQAPGKERELVATIGRGGTTNYADSVKGRFTISRDNAKNTVYLQMNSLKPEDTSVYYCNAERIWRYKYGYDYWGQGTQVTVSS | high polyreactivity |
| QVQLVDSGGGLVQAGGSLRLSCAASGSIFQQYAMGWYRQAPGKESELVAAISWGDGSTYYADSVKGRFPISRDNAKNTVYLQMNSLKPEDTAVYYCNAYASAPLWSLEDDYWGQGTQVTVSS | low polyreactivity |
| QVQLVDSGGGLVQAGGSLRLSCAASGSIFQYYAMGWYRQAPGKEMELVAAITSVSSTSYADSVKGRFTISRDNAKNTVYLQMNSLKPEDTAVYYCDAAFRRGLLKMDYWGQGTQVTVSS | low polyreactivity |
| QVQLVDSGGGLVQAGGSLRLSCAASGSIFRGYAMGWYRPAPGKESGLVAAISRDGGSTYYADSVKGRFTISRDNAKNTVYLQMNSLKPEDTAVYYCAADYVAYATYGDGDYWGQGTQVTVSS | high polyreactivity |
| QVQLVDSGGGLVQAGGSLRLSCAASGSIFRYNAMGWYREAPGKERVLVAAISWNGARTYYADSVKGRFTISRDNAKNTVYLQMNSLKPEDTAVYYCNAGTFTRRRGLDYWGQGTQVTGSS | low polyreactivity |
| QVQLVDSGGGLVQAGGSLRLSCAASGSIFSAYAMGWYRQAPGKERELVAAITFGGSTYYADSVKGRFTISRDNAKNTVYLQMNSLKPEDTAVYYCNAYYPFVGLYLGHDYWGQGTQVTVSS | low polyreactivity |
| QVQLVDSGGGLVQAGGSLRLSCAASGSIFVNNTMGWYRQAPGKERELVAAISSSGGSTYYADSVKGRFTISRDNAKNTVYLQMNSLKPEDTAVYYCAAVNGYQYPQYYYNGYDYWGQGTQVTVSS | low polyreactivity |
| QVQLVDSGGGLVQAGGSLRLSCAASGSIFVTYAMGWSRQAPAKERELVAAITDRGGSTYADSVKGRFTISRDNAKNTVYLQMNSLKPEDTAVYYCAADPDLGDAYDYWGQGTQVTVSS | low polyreactivity |
| QVQLVDSGGGLVQAGGSLRLSCAASGSSVKTYAMGWYRQAPGKERELVASISYSGDTTYADSVKGRFTISRDNAKNSVYLQMNSLKPEDTAVYYCAAGWYYYYYSYQYWDYDYWGQGTQVTVSS | high polyreactivity |
| QVQLVDSGGGLVQAGGSLRLSCAASGSTFRGYAMGWYRQSPGKERELVAAITGSAGSTYYADSVKGRFTISRDNAKNTVYLQMNSLKPEDTAVYYCAAATSYRRYYYIYNYWGQGTQVTVSS | high polyreactivity |
